Measured values: the supplement of paper PMC9112550, “Optimization of the antimicrobial peptide Bac7 by deep mutational scanning” (BMC Biology, 2022)

Tested on: Escherichia coli TOP10
Assay: shrunken log2 fold change of peptide-encoding DNA abundance (4.5 h post-induction vs induction); higher = less antimicrobial activity (less host growth inhibition)
Settings: time post-induction: 4.5 h; library: site-saturation at positions 5, 18, 19, 20
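Also: peptides expressed intracellularly from a pBAD plasmid library in pooled LB shake-flask culture, induced with 0.3% L-arabinose, DNA abundance read by NGS, three biological replicates, DESeq2 with apeglm shrinkage.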

In the case of RRIRKRPPRLPRPRPRPGILPRP, the “shrunken log2 fold change” value is reported as 0.28.

With RRIRKRPPRLPRPRPRPGMIPRP the “shrunken log2 fold change” value was -0.0362.

In the case of RRIRKRPPRLPRPRPRPGNEPRP, the “shrunken log2 fold change” value is reported as 0.204.

In the case of RRIRKRPPRLPRPRPRPGPKPRP, the “shrunken log2 fold change” value is reported as 1.15.

For RRIRKRPPRLPRPRPRPGPVPRP, the “shrunken log2 fold change” value was 0.531.

For RRIRKRPPRLPRPRPRPGQFPRP, the “shrunken log2 fold change” value was 0.00171.

With RRIRKRPPRLPRPRPRPGQTPRP the “shrunken log2 fold change” value was 0.611.

With RRIRKRPPRLPRPRPRPGRGPRP the “shrunken log2 fold change” value was 0.593.

With RRIRKRPPRLPRPRPRPGRLPRP the “shrunken log2 fold change” value was 0.299.

With RRIRKRPPRLPRPRPRPGSPPRP the “shrunken log2 fold change” value was 0.166.

RRIRKRPPRLPRPRPRPGSRPRP was tested, and the “shrunken log2 fold change” value was -0.171.

In the case of RRIRKRPPRLPRPRPRPGVDPRP, the “shrunken log2 fold change” value is reported as 0.824.

For RRIRKRPPRLPRPRPRPGVRPRP, the “shrunken log2 fold change” value was 1.16.

In the case of RRIRKRPPRLPRPRPRPGWLPRP, the “shrunken log2 fold change” value is reported as 0.593.

With RRIRKRPPRLPRPRPRPGYAPRP the “shrunken log2 fold change” value was 0.223.

In the case of RRIRKRPPRLPRPRPRPGYDPRP, the “shrunken log2 fold change” value is reported as -0.0159.

With RRIRKRPPRLPRPRPRPGYQPRP the “shrunken log2 fold change” value was 0.0954.

RRIRKRPPRLPRPRPRPHCNPRP was tested, and the “shrunken log2 fold change” value was -0.275.

For RRIRKRPPRLPRPRPRPHCTPRP, the “shrunken log2 fold change” value was -0.24.

For RRIRKRPPRLPRPRPRPHEMPRP, the “shrunken log2 fold change” value was 0.0317.

RRIRKRPPRLPRPRPRPHFLPRP was tested, and the “shrunken log2 fold change” value was 0.12.

In the case of RRIRKRPPRLPRPRPRPHFQPRP, the “shrunken log2 fold change” value is reported as 0.0821.

With RRIRKRPPRLPRPRPRPHGDPRP the “shrunken log2 fold change” value was 0.0106.

With RRIRKRPPRLPRPRPRPHGEPRP the “shrunken log2 fold change” value was 0.428.

In the case of RRIRKRPPRLPRPRPRPHIEPRP, the “shrunken log2 fold change” value is reported as -0.891.

For RRIRKRPPRLPRPRPRPHKWPRP, the “shrunken log2 fold change” value was -0.0776.

RRIRKRPPRLPRPRPRPHLAPRP was tested, and the “shrunken log2 fold change” value was 0.0615.

For RRIRKRPPRLPRPRPRPHLCPRP, the “shrunken log2 fold change” value was 0.0127.

In the case of RRIRKRPPRLPRPRPRPHLYPRP, the “shrunken log2 fold change” value is reported as 0.0535.

In the case of RRIRKRPPRLPRPRPRPHMAPRP, the “shrunken log2 fold change” value is reported as -0.448.

For RRIRKRPPRLPRPRPRPHNKPRP, the “shrunken log2 fold change” value was -0.0934.

With RRIRKRPPRLPRPRPRPHNYPRP the “shrunken log2 fold change” value was -0.0761.

With RRIRKRPPRLPRPRPRPHQSPRP the “shrunken log2 fold change” value was 0.226.

For RRIRKRPPRLPRPRPRPHRPPRP, the “shrunken log2 fold change” value was 0.172.

For RRIRKRPPRLPRPRPRPHSEPRP, the “shrunken log2 fold change” value was -0.0169.

With RRIRKRPPRLPRPRPRPHTNPRP the “shrunken log2 fold change” value was 0.192.

With RRIRKRPPRLPRPRPRPHTVPRP the “shrunken log2 fold change” value was -0.407.

For RRIRKRPPRLPRPRPRPHYIPRP, the “shrunken log2 fold change” value was -0.123.

For RRIRKRPPRLPRPRPRPIDVPRP, the “shrunken log2 fold change” value was 0.191.

With RRIRKRPPRLPRPRPRPIEAPRP the “shrunken log2 fold change” value was 0.0321.

RRIRKRPPRLPRPRPRPIETPRP was tested, and the “shrunken log2 fold change” value was 0.00938.

RRIRKRPPRLPRPRPRPIGGPRP was tested, and the “shrunken log2 fold change” value was -0.494.

In the case of RRIRKRPPRLPRPRPRPIHCPRP, the “shrunken log2 fold change” value is reported as 0.0163.

With RRIRKRPPRLPRPRPRPIIDPRP the “shrunken log2 fold change” value was -0.139.

With RRIRKRPPRLPRPRPRPIKGPRP the “shrunken log2 fold change” value was -0.141.

In the case of RRIRKRPPRLPRPRPRPILRPRP, the “shrunken log2 fold change” value is reported as -0.0475.

With RRIRKRPPRLPRPRPRPIMPPRP the “shrunken log2 fold change” value was 0.099.

With RRIRKRPPRLPRPRPRPINAPRP the “shrunken log2 fold change” value was 0.088.

With RRIRKRPPRLPRPRPRPINHPRP the “shrunken log2 fold change” value was -0.408.

With RRIRKRPPRLPRPRPRPIPYPRP the “shrunken log2 fold change” value was -0.303.

For RRIRKRPPRLPRPRPRPIQAPRP, the “shrunken log2 fold change” value was -0.000921.

With RRIRKRPPRLPRPRPRPIQFPRP the “shrunken log2 fold change” value was 0.0779.

In the case of RRIRKRPPRLPRPRPRPIQYPRP, the “shrunken log2 fold change” value is reported as -0.193.

RRIRKRPPRLPRPRPRPITDPRP was tested, and the “shrunken log2 fold change” value was -0.128.

RRIRKRPPRLPRPRPRPITNPRP was tested, and the “shrunken log2 fold change” value was 0.133.

RRIRKRPPRLPRPRPRPIWFPRP was tested, and the “shrunken log2 fold change” value was -0.0276.

For RRIRKRPPRLPRPRPRPIWTPRP, the “shrunken log2 fold change” value was -0.00674.

For RRIRKRPPRLPRPRPRPIYGPRP, the “shrunken log2 fold change” value was -0.00172.

In the case of RRIRKRPPRLPRPRPRPIYHPRP, the “shrunken log2 fold change” value is reported as -0.472.

RRIRKRPPRLPRPRPRPKAMPRP was tested, and the “shrunken log2 fold change” value was -0.0457.
